Laboratory results taken from patent publication US20100086943.

Test system: fusion protein comprising the c-myc tag, a generic substrate recognized by the serine/threonine kinases and the FLAG tag, expressed from the pSEMS plasmid (Snaptag)

| Substance | phosphorylation of the substrate measured by TR-FRET after activation by ionomycin | phosphorylation of the substrate measured by TR-FRET (delta F) |
| --- | --- | --- |
| Cam kinase II (expressed from CamKII delta-pcDNA 3.1) | in the presence of ionomycin, the signal measured is much greater than in its absence |  |
| kinase Akt1 (expressed from Akt1-pcDNA 3.1) |  | The co-transfection with the plasmid coding for the protein substrate and the plasmid coding for the kinase Akt1 makes it possible to increase the quantity of protein substrate phosphorylated specifically by Akt1 |
